Experimental data from patent publication US20160194391A1 (AstraZeneca / MedImmune, published 2016).

Columns and labels:
human IL-6 [1] = target: T1, human IL-6 (human, UniProt P05231 30-212); test: cell-based or functional assay
Primate IL-6 = target: T2, Primate IL-6 (Macaca mulatta, UniProt P51494); test: cell-based or functional assay
T2 sequence (cytokine, looked up): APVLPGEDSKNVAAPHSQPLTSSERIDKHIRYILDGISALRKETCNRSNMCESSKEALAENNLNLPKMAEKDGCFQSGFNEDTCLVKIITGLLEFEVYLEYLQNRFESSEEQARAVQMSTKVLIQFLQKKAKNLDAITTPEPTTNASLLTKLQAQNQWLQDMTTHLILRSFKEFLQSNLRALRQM

human IL-6 [2] = target: T1, human IL-6; test: SPR (SensiQ Pioneer), mAb captured on protein G, IL-6 as analyte (3×FLAG-IL-6 or IL-6 CYT-213, 1-100 nM), 25 C, 1:1 model
human IL-12 = target: T3, human IL-12 (human, UniProt P29459 23-219; P29460 23-328); test: ELISA, human IL-12 coated on the plate; 13A8 is the anti IL-6 negative control [Binding to Human IL-12]
T3 construct: Bioassay used Prospec-Tany Cyt-362
T3 sequence (looked up) 1: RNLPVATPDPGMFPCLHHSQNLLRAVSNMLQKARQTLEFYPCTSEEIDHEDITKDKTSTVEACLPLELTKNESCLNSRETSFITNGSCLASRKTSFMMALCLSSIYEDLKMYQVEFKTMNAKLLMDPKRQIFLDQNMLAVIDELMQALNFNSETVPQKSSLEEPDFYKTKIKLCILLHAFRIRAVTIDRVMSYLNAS
T3 sequence (looked up) 2: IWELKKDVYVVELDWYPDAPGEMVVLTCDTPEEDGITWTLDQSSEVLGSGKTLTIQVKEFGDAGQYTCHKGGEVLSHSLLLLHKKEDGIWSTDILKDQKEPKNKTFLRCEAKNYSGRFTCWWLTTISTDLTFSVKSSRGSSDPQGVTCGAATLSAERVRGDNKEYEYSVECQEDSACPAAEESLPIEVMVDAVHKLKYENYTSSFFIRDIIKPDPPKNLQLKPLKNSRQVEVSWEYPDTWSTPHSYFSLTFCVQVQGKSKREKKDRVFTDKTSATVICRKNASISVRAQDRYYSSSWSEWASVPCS

monkey IL-12 (macaque) = target: T4, monkey IL-12 (macaque) (macaque, UniProt P48091 23-219; P48095 23-328); test: ELISA, monkey (macaque) IL-12 coated on the plate; 13A8 is the anti IL-6 negative control [Binding to Monkey IL-12]
T4 construct: also called macaque IL-12
T4 sequence (looked up) 1: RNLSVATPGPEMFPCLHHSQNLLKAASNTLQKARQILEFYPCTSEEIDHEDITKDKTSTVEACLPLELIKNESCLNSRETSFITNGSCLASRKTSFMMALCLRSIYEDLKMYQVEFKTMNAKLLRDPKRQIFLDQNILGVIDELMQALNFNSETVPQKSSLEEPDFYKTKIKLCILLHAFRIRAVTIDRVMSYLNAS
T4 sequence (looked up) 2: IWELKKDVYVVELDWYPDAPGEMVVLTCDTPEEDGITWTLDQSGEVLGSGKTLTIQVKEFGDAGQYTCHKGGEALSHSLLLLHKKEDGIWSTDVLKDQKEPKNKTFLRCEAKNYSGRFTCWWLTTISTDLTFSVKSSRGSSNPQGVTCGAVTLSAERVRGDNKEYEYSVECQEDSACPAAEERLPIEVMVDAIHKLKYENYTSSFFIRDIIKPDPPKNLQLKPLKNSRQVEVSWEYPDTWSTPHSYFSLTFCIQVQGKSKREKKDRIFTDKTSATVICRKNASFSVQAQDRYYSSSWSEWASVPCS

human IL-12 p40 subunit = target: T5, human IL-12 p40 subunit (human, UniProt P29460 23-328); test: ELISA, human IL-12 p40 subunit coated on the plate; 13A8 is the anti IL-6 negative control [Binding to human IL-12 p40]
T5 construct: Coated on ELISA plates
T5 sequence (looked up): T3 sequence (looked up) 2

EC50, inhibition of IL-6 induced B9 cell proliferation (human IL-6 [1]): 0.034 ng/mL
IC50 (read off the curve) (B9 proliferation, OD570-600) (Primate IL-6): ~0.4 ng/mL
Kd (human IL-6 [2]): 0.218 nM
koff (human IL-6 [2]): 0.000138 s⁻¹
kon (human IL-6 [2]): 633000 M⁻¹ s⁻¹
binding result (human IL-12): no binding
binding result (monkey IL-12 (macaque)): no binding
binding result (human IL-12 p40 subunit): no binding
B1: 13A8 chimeric mAb (antibody, V domains shown)
VH: QSVEESGGRLVTPGTPLTLTCTVSGIDLSSYDMSWVRQAPGKGLEWIGYIYTDSSTWYANWAKGRFTISKTSSTTVDLKMTSLTTEDTATYFCAKGSTDYAFDTRLDLWGPGTLVTVSS
VL: NIVMTQTPSPVSGAVGGTVTINCQASQSISNELSWYQQKPGQPPRLLIYRASTLTSGVSSRFKGSGAGTQFTLTISGVECADAATYYCQQGYNSNDVDNVFGGGTKVVVVR
notes: HEK293; also called 13A8 clone
